# In patent US20130189725A1, “HUMAN IN VITRO MODEL OF THE BLOOD CER[…] BARRIER” (RUPRECHT-KARLS-UNIVERSITAT HEIDELBERG, priority 2010, published 2013):
# System: HIBCPP monolayers
# Assay: Paracellular permeability: FITC-inulin flux through HIBCPP layers on transwell filters
# Assay type: in vitro ADME, human
# Conditions: standard and inverted transwell filter system
# Description: HIBCPP were cultured in a 1:1 mixture of DMEM medium and HAM's F12 medium, supplemented with 4 mM L-Glutamine, 5 μg/ml insulin, penicillin (100 U/ml) and streptomycin (100 μg/ml), and 15% (v/v) heat inactivated fetal calf serum (FCS) [HIBCPP-medium with 15% (v/v) FCS]. Since HIBCPP have been described to change doubling time with increasing passages, only cells between passage 33 and 37 were used. For filter-based assays, the amounts of cells indicated in the respective experiments were seeded on the filter membrane of transwell filters (pore diameter 3.0 μm, pore density 2.0×10^6 pores per cm^2, 0.33 cm^2; Greiner Bio-one, Frickenhausen, Germany). For the standard transwell filter system, cells were seeded into the upper well of the transwell filter. Subsequently, cells were washed once each of the following two days. Medium was added to the lower well not before day two after seeding. […]
# Paracellular permeability of HIBCPP monolayers was determined by measuring the passage of a FITC-inulin (Sigma, Deisenhofen, Germany) tracer solution (100 μg/ml) from the apical to the basolateral compartment of transwell filters carrying the monolayers in a Tecan Infinite M200 Multiwell reader (Tecan, Switzerland) employing Magellan V6.6 software.
substance,measurement,setting,value
FITC-inulin,permeability for FITC-inulin,"after day 0, simultaneously with development of a high TEER, 15%, 1% or no serum",below 1%
same,FITC-inulin flux,"up to day 0 when TEER values are still low, tracer 100 μg/ml",≥ 3%
